Test results reported in US20140303084.
Where a chain is given by its changes, count along the chain named.

Columns and labels:
[1] = system: T1, RLTCLASYCWLF
T1 sequence: RLTCLASYCWLF

[2] = system: T2, KLTCL-Abu-SYCWLF
T2 sequence: KLTCLXSYCWLF

[3] = system: T3, RGRSAKLRCLASYCWLFFGVIL
T3 sequence: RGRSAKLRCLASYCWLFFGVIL

[4] = system: T4, KLT-Orn-LASY-Glu-WLF-CONH2
T4 sequence: KLTXLASYEWLF

[5] = system: T5, PRIRTVGPGSRSASGKSTCLASYCWLFWTGIA
T5 sequence: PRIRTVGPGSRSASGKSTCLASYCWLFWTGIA

[6] = system: T6, KLKCLASYCWLF
T6 sequence: KLKCLASYCWLF

[7] = system: T7, RRAPGKLTCLASYCWLFWTG-MeIle-A
T7 sequence: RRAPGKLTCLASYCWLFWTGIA

[8] = system: T8, GKLQCLASYCWLFWTGIA
T8 sequence: GKLQCLASYCWLFWTGIA

[9] = system: T9, SRIRTVGPGSRSASGKSTCLASYCWLFWTGIA
T9 sequence: T5 sequence with P1S

[10] = system: T10, RRCPGKLQALASYCWLFWTGIA
T10 sequence: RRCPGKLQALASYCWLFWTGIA

[11] = system: T11, RRAPGKCTALASYCWLFWTGIA-CONH2
T11 sequence: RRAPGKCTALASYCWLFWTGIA

[12] = system: T12, C(N-ethylmaleimide)-PEG4-LVPR-PEG4-rRAPGKLTCLASYCWLFWTGIA
T12 sequence: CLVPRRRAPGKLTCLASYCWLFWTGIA

[13] = system: T13, RRAPGKLTCLASYAWLCWTGIA-COOH
T13 sequence: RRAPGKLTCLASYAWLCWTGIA

[14] = system: T14, SRIrTVSPGSrSASGKSTCLASYCWLFWTGIA
T14 sequence: T5 sequence with P1S, G7S

[15] = system: T15, RRFVGGSLSQ RRAPG KLTCLASYCWLFWTGIA
T15 sequence: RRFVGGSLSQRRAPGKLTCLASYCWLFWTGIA

[16] = system: T16, PTDTGPVISG LRAPG KLTCLASYCWLFWTGIA
T16 sequence: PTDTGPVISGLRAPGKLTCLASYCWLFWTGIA

[17] = system: T17, TQWAQVGPRG RRAQG KLTCLASYCWLFWTGIA
T17 sequence: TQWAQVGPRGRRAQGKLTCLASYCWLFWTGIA

[18] = system: T18, compound C
T18 sequence: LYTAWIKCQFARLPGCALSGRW

[19] = system: T19, k-MeLeu-TCLASFCWLF
T19 sequence: KLTCLASFCWLF

[20] = system: T20, PRIRTVSPGSRSASGKSTCLASYCWLFWTGIA
T20 sequence: T5 sequence with G7S

[21] = system: T21, ═N-O-(CH2)3-O-N═(COCH2CH2CO-KLTCLASYCWLF)2
T21 sequence: KLTCLASYCWLF

[22] = system: T22, rRAPGKLTCLASYCWLFWTGIA-PEG16-Lys(PEG2-Biotin)-PEG16
T22 sequence: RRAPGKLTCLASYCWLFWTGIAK

[23] = system: T23, GDSGRKLSCLGSYCWLSVQFMA
T23 sequence: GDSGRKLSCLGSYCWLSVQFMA

[24] = system: T24, RRAPGKLTCLASYCWLF YTGIA HGHPMEHRKS
T24 sequence: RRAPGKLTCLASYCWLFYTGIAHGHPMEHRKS

[25] = system: T25, SKQGRPISPDRRAAGKLT-Asp-LASY-Orn-WLFWTGIA
T25 sequence: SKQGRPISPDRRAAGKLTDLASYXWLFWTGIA

[26] = system: T26, TGS-KLTCLASYCWLF-APG
T26 sequence: TGSKLTCLASYCWLFAPG

[27] = system: T27, MeLys-LTCLASYCWLF
T27 sequence: KLTCLASYCWLF

[28] = system: T28, RRAPGKLTCLASYCWLF WTGYA SGKPSRVYVI
T28 sequence: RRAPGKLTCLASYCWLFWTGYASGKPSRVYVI

[29] = system: T29, AIGTWFLWCYSALCTLKGPARR (retro)
T29 sequence: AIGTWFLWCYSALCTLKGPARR

[30] = system: T30, SKQGRPISSDrRAAGKSTCLASYCWLFWTGIA
T30 sequence: T25 sequence with P9S, L17S, D19C, X24C

[31] = system: T31, RRAPGKLTCLASYCWLF ATGVT FPQIWAIPSP
T31 sequence: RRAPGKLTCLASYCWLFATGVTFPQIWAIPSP

[32] = system: T32, k-MeLeu-TCLASYCQLF
T32 sequence: KLTCLASYCQLF

[33] = system: T33, SKQGRPISPDrRAAGKLTCLASYCWLFWT
T33 sequence: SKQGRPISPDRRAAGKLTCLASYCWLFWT

[34] = system: T34, compound 6
T34 sequence: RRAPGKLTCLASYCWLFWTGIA

[35] = system: T35, PEG4-RRAPGKLTCLASYCWLFWTGIA
T35 sequence: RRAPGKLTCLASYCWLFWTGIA

[36] = system: T36, RRAPGKLTCLASYCWLF WTGWC RDTASHACDS
T36 sequence: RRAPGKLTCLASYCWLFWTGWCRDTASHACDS

[37] = system: T37, KL-MeThr-CLASYCWLF
T37 sequence: KLTCLASYCWLF

[38] = system: T38, RRAPGKLTCLASYCWLF EPGIA QPYAKSPTRN
T38 sequence: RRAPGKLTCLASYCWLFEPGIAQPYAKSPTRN

[39] = system: T39, SKQGRPISPDRRAAGKLTCLASYCWLFWTGIA-PEG2-K(PEG2-Biotin)
T39 sequence: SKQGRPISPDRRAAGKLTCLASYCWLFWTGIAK

[40] = system: T40, RRAPGKLTCLASYCWLF WTTYA SYATKPADTT
T40 sequence: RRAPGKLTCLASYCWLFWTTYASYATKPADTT

[41] = system: T41, RRAPGKLT-Asp-LASY-Lys-WLFWTGIA-CONH2
T41 sequence: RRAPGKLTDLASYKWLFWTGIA

[42] = system: T42, RRAPGCLTALASYAWLCWTGIA-COOH
T42 sequence: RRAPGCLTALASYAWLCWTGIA

[43] = system: T43, SKQGRAISPDrRAAGKLTCLASYCWLFWTGIA
T43 sequence: T25 sequence with P6A, D19C, X24C

[44] = system: T44, C(PEG5K)GGGLVPRGGG-RRAPGKLT-Asp-LASY-Lys-WLFWTGIA
T44 sequence: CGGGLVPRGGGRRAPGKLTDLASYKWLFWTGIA

[45] = system: T45, RRAPGKLTCLASYACLFWTGIA-COOH
T45 sequence: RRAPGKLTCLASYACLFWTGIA

[46] = system: T46, KLTCLASYCLLF
T46 sequence: KLTCLASYCLLF

With human Factor IXa the Vmax, FXa generation assay [1] was over 2, the Vmax, FXa generation assay [2] was over 2 and the Vmax, FXa generation assay [3] was over 2. The “Vmax, FXa generation assay; (++) means 1-2” value (“Vmax … (++) means 1-2” below) [4] was “(++)”, the Vmax, FXa generation assay [5] was over 3 and the Vmax, FXa generation assay [6] was over 3. It also gave a Vmax, FXa generation assay [7] of over 2.3, a Vmax, FXa generation assay [8] of over 2 and a Vmax, FXa generation assay [9] of over 3. For the same substance, the Vmax, FXa generation assay [10] was over 2, the Vmax, FXa generation assay [11] was over 2 and the “Vmax … (++) means 1-2” value [12] was “(++)”. For the same substance, the Vmax, FXa generation assay [13] was over 0.5, the Vmax, FXa generation assay [14] was over 3 and the Vmax, FXa generation assay [15] was over 3. For the same substance, the “Vmax … (++) means 1-2” value [16] was “(++)”, the Vmax, FXa generation assay [17] was over 3 and the KM (nM) of hFIXa for FX [18] was 99 nM. It also gave a Vmax, FXa generation assay with hFIXa [18] of over 0.6, a kcat (min^-1) of hFIXa for FX, scrambled control at 10.0 µM [18] of 0.00044 min⁻¹ and a Vmax, FXa generation assay [19] of over 2. For the same substance, the Vmax, FXa generation assay [20] was over 3, the Vmax, FXa generation assay [21] was over 3 and the Vmax, FXa generation assay [22] was over 3. For the same substance, the “Vmax … (++) means 1-2” value [23] was “(++)”, the Vmax, FXa generation assay [24] was over 3 and the Vmax, FXa generation assay [25] was over 3. For the same substance, the Vmax, FXa generation assay [26] was over 2, the “Vmax … (++) means 1-2” value [27] was “(++)” and the Vmax, FXa generation assay [28] was over 3. For the same substance, the “Vmax … (++) means 1-2” value [29] was “(++)”, the Vmax, FXa generation assay [30] was over 3 and the Vmax, FXa generation assay [31] was over 3. It also gave a Vmax, FXa generation assay [32] of over 3, a Vmax, FXa generation assay [33] of over 2 and a Vmax, FXa generation assay with hFIXa [34] of over 2. The Vmax, FXa generation assay [35] was over 3, the “Vmax … (++) means 1-2” value [36] was “(++)” and the “Vmax … (++) means 1-2” value [37] was “(++)”. The Vmax, FXa generation assay [38] was over 2, the “Vmax … (++) means 1-2” value [39] was “(++)” and the Vmax, FXa generation assay [40] was over 2. For the same substance, the Vmax, FXa generation assay [41] was over 2, the Vmax, FXa generation assay [42] was over 0.1 and the Vmax, FXa generation assay [43] was over 3. For the same substance, the “Vmax … (++) means 1-2” value [44] was “(++)”, the Vmax, FXa generation assay [45] was over 2 and the Vmax, FXa generation assay [46] was over 2.
